Data set [1] deals with the molecule itself. Briefly: cryo-EM structure; full length, non-cleaved VaPomAB reconstituted into saposin nanodiscs with E. coli polar lipids; 6.3 Å map.
Data set [2] deals with the molecule itself. Description: cryo-EM structure; VaPomAB (PomB PGB removed) co-expressed and co-purified, in LMNG detergent, 20 mM HEPES pH 7.5, 300 mM NaCl, 0.0125% CHAPSO added; ~2.5 Å.

The record followed here is publication PMC10374538, “Ion selectivity and rotor coupling of the Vibrio flagellar sodium-driven stator unit” (Nature Communications, 2023).

B1: Vibrio alginolyticus PomB, full length, non-cleaved (without protease insertion) (natural protein)
chain: MDDEDNKCDCPPPGLPLWMGTFADLMSLLMCFFVLLLSFSEMDVLKFKQIAGSMKFAFGVQNQLEVKDIPKGTSIIAQEFRPGRPEPTPIDVIMQQTMDITQQTLEFHEGESDRAGGTKRDEGKLTGGQSPATSTQNNESAEADMQQQQSKEMSQEMETLMESIKKALEREIEQGAIEVENLGQQIVIRMREKGAFPEGSAFLQPKFRPLVRQIAELVKDVPGIVRVSGHTDNRPLDSELYRSNWDLSSQRAVSVAQEMEKVRGFSHQRLRVRGMADTEPLLPNDSDDNRALNRRVEISIMQGEPLYSEEVPVIQ
notes: That the tag is on PomB is surmised; Only a 6.3 Å map (EMD-16214) was deposited, no model; also called full length VaPomAB
On to B1, for which, in data set [1], the binding result is “binds”.

B2: Vibrio alginolyticus PomB without the peptidoglycan binding domain (PGB removed by HRV 3C protease at a site inserted between Gln95 and Gln96) (domain or fragment)
chain: MDDEDNKCDCPPPGLPLWMGTFADLMSLLMCFFVLLLSFSEMDVLKFKQIAGSMKFAFGVQNQLEVKDIPKGTSIIAQEFRPGRPEPTPIDVIMQGTLEVLFQ
notes: PomB of Vibrio alginolyticus (ATCC 17749), from the N-terminus to Gln95 (TM helix, plug motif and what follows, up to the inserted protease site); That the twin-Strep-tag sat at the C-terminus of PomB and left with the PGB domain is surmised; also called VaPomB; VaPomAB without PomB PGB; not shown: twin-Strep-tag, C-terminal, cleaved
One may read the stoichiometry N as the number of molecules, sites or subunits per partner or assembly. As to B2, the “stoichiometry N” value in data set [2] turned out to be 2.
